This note sets out measurements from patent US20240092836A1.

In this assay the target is Recombinant Human CTLA4-Fc chimera (R&D systems) (human) (UniProt P16410). Briefly: ELISA, signal over SA. Background: In an ELISA, binding on a coated surface is turned into a signal by an enzyme label.
On to GGCWHPSLPIYSPHFCPL (peptide, not shown: large carriers; small tags and cut ends) [C4m3127-4th-NNS6-2], for which the ELISA S/N(SA) was 12.8.

GGCRHPFLPIVSWHFCAA (peptide, not shown: large carriers; small tags and cut ends) [C4m#19-5th2w-NNS6-70]: the ELISA S/N(SA) amounted to 5.1.

For the molecule GGCWHPFLPIVSFHFCPF (peptide, not shown: large carriers; small tags and cut ends) [C4m#19-5th2w-NNS6-84], the ELISA S/N(SA) worked out at 6.4.

Turning to GGCSHPFLPIFSLHFCPV (peptide, not shown: large carriers; small tags and cut ends) [C4m#19-5th4w-NN6-38], the ELISA S/N(SA) amounted to 16.6.

As to GGCAHPYLPIRSVHFCPC (peptide, not shown: large carriers; small tags and cut ends) [C4m#19-5th2w-NNS6-28], the ELISA S/N(SA) worked out at 6.3.

As for GGCLHPFLPIYSLHFCPC (peptide, not shown: large carriers; small tags and cut ends) [C4m#19-5th4w-NN6-94], the ELISA S/N(SA) came to 5.

As for GGCSHPFLPIRSRHFCPF (peptide, not shown: large carriers; small tags and cut ends) [C4m3127-4th-NNS6-12], the ELISA S/N(SA) came out at 15.8.

For GGCWHPFLPISSWHFCGL (peptide, not shown: large carriers; small tags and cut ends) [C4m3127-4th-NNS6-60], the ELISA S/N(SA) stood at 11.9.

Take GGCWHPYLPIFSVHFCPR (peptide, not shown: large carriers; small tags and cut ends) [C4m3127-4th-NNS6-16]: the ELISA S/N(SA) came to 16.5.

For GGCRHPFLPIFSVHFCPF (peptide, not shown: large carriers; small tags and cut ends) [C4m#19-5th2w-NNS6-66], the ELISA S/N(SA) turned out to be 4.4.

For GGCRHPFLPIVSRHFCVA (peptide, not shown: large carriers; small tags and cut ends) [C4m#19-5th2w-NNS6-79], the ELISA S/N(SA) turned out to be 9.2.

Turning to GGCRHPFLPIVSLHFCPF (peptide, not shown: large carriers; small tags and cut ends) [C4m#19-5th2w-NNS6-51], the ELISA S/N(SA) was 15.8.

For the molecule GGCFHPFLPIYSWHFCAR (peptide, not shown: large carriers; small tags and cut ends) [C4m#19-5th4w-NN6-74], the ELISA S/N(SA) came out at 15.1.

GGCWHPFLPILSWHFCGR (peptide, not shown: large carriers; small tags and cut ends) [C4m#19-5th2w-NNS6-30]: the ELISA S/N(SA) was found to be 9.

GGCFHPWLPIASWHFCGR (peptide, not shown: large carriers; small tags and cut ends) [C4m3127-4th-NNS6-48]: the ELISA S/N(SA) stood at 13.5.

GGCWHPFLPIFSAHFCMR (peptide, not shown: large carriers; small tags and cut ends) [C4m3127-4th-NNS6-89]: the ELISA S/N(SA) worked out at 6.6.

Consider GGCGHPFLPIFSLHFCPR (peptide, not shown: large carriers; small tags and cut ends) [C4m3127-4th-NNS6-80], for which the ELISA S/N(SA) was determined as 12.8.

On to GGCFHPYLPIWSLHFCRS (peptide, not shown: large carriers; small tags and cut ends) [C4m#19-5th2w-NNS6-86], for which the ELISA S/N(SA) is 7.7.

GGCWHPWLPIVSVHFCGC (peptide, not shown: large carriers; small tags and cut ends) [C4m#19-5th4w-NN6-72]: the ELISA S/N(SA) turned out to be 4.6.

Consider GGCRHPFLPIWSFHFCWG (peptide, not shown: large carriers; small tags and cut ends) [C4m#19-5th2w-NNS6-33], for which the ELISA S/N(SA) is 9.4.

Turning to GGCMHPFLPIRSWHFCSR (peptide, not shown: large carriers; small tags and cut ends) [C4m#19-5th2w-NNS6-74], the ELISA S/N(SA) was determined as 7.

With GGCLHPFLPILSLHFCPF (peptide, not shown: large carriers; small tags and cut ends) [C4m3127-4th-NNS6-20], the ELISA S/N(SA) is 4.4.

In the case of GGCLHPYLPIFSVHFCAL (peptide, not shown: large carriers; small tags and cut ends) [C4m#19-5th2w-NNS6-87], the ELISA S/N(SA) worked out at 4.5.

As to GGCWHPWLPIKSPHFCAL (peptide, not shown: large carriers; small tags and cut ends) [C4m#19-5th2w-NNS6-75], the ELISA S/N(SA) was 15.3.

GGCWHPYLPILSLHFCQR (peptide, not shown: large carriers; small tags and cut ends) [C4m#19-5th2w-NNS6-6]: the ELISA S/N(SA) came out at 10.3.

Take GGCIHPFLPIWSIHFCSR (peptide, not shown: large carriers; small tags and cut ends) [C4m#19-5th2w-NNS6-37]: the ELISA S/N(SA) is 9.4.

In the case of GGCLHPWLPIVSCHFCPR (peptide, not shown: large carriers; small tags and cut ends) [C4m#19-5th2w-NNS6-68], the ELISA S/N(SA) was 4.6.

With GGCRHPYLPIFSAHFCRS (peptide, not shown: large carriers; small tags and cut ends) [C4m#19-5th4w-NN6-1], the ELISA S/N(SA) amounted to 16.1.

In the case of GGCLHPFLPIRSVHFCLR (peptide, not shown: large carriers; small tags and cut ends) [C4m3127-4th-NNS6-79], the ELISA S/N(SA) came to 12.8.

With GGCRHPFLPIRSPHFCGS (peptide, not shown: large carriers; small tags and cut ends) [C4m3127-4th-NNS6-7], the ELISA S/N(SA) is 4.7.

Take GGCFHPFLPIFSYHFCGL (peptide, not shown: large carriers; small tags and cut ends) [C4m#19-5th2w-NNS6-46]: the ELISA S/N(SA) turned out to be 6.1.

Take GGCSHPYLPIHSRHFCLS (peptide, not shown: large carriers; small tags and cut ends) [C4m3127-4th-NNS6-70]: the ELISA S/N(SA) is 4.6.

As to GGCPHPMLPIFSVHFCPY (peptide, not shown: large carriers; small tags and cut ends) [C4m#19-5th4w-NN6-61], the ELISA S/N(SA) worked out at 5.9.

Regarding GGCFHPWLPISSLHFCPF (peptide, not shown: large carriers; small tags and cut ends) [C4m#19-5th2w-NNS6-4], the ELISA S/N(SA) was 6.3.

On to GGCRHPFLPIFSLHFCAR (peptide, not shown: large carriers; small tags and cut ends) [C4m#19-5th2w-NNS6-8], for which the ELISA S/N(SA) amounted to 16.5.

As for GGCRHPWLPIWSVHFCGV (peptide, not shown: large carriers; small tags and cut ends) [C4m#19-5th4w-NN6-45], the ELISA S/N(SA) turned out to be 15.8.

As to GGCLHPLLPILSVHFCPS (peptide, not shown: large carriers; small tags and cut ends) [C4m#19-5th4w-NN6-83], the ELISA S/N(SA) is 12.

As for GGCLHPYLPIVSSHFCPF (peptide, not shown: large carriers; small tags and cut ends) [C4m3127-4th-NNS6-64], the ELISA S/N(SA) is 12.9.

Turning to GGCFHPFLPIRSCHFCAR (peptide, not shown: large carriers; small tags and cut ends) [C4m#19-5th2w-NNS6-27], the ELISA S/N(SA) was found to be 9.9.

Take GGCRHPVLPIWSSHFCPW (peptide, not shown: large carriers; small tags and cut ends) [C4m3127-4th-NNS6-94]: the ELISA S/N(SA) was 5.9.

As for GGCWHPYLPILSRHFCQA (peptide, not shown: large carriers; small tags and cut ends) [C4m#19-5th4w-NN6-63], the ELISA S/N(SA) came out at 16.5.

As for GGCRHPYLPIWSAHFCCR (peptide, not shown: large carriers; small tags and cut ends) [C4m#19-5th4w-NN6-36], the ELISA S/N(SA) stood at 5.7.

Regarding GGCWHPFLPIMSFHFCPY (peptide, not shown: large carriers; small tags and cut ends) [C4m#19-5th4w-NN6-30], the ELISA S/N(SA) came out at 16.7.

Consider GGCCHPWLPIRSVHFCPF (peptide, not shown: large carriers; small tags and cut ends) [C4m#19-5th2w-NNS6-61], for which the ELISA S/N(SA) amounted to 4.3.

Take GGCWHPFLPILSLHFCGW (peptide, not shown: large carriers; small tags and cut ends) [C4m#19-6th4w-NN6-5-3]: the ELISA S/N(SA) worked out at 14.7.

For the molecule GGCLHPWLPIRSFHFCGA (peptide, not shown: large carriers; small tags and cut ends) [C4m#19-5th2w-NNS6-53], the ELISA S/N(SA) was determined as 11.4.

For GGCWHPFLPIRSVHFCCR (peptide, not shown: large carriers; small tags and cut ends) [C4m#19-5th4w-NN6-14], the ELISA S/N(SA) is 16.1.

With GGCWHPYLPIQSLHFCPF (peptide, not shown: large carriers; small tags and cut ends) [C4m#19-5th4w-NN6-5-1], the ELISA S/N(SA) came to 14.7.

As for GGCMHPSLPIWSWHFCPH (peptide, not shown: large carriers; small tags and cut ends) [C4m3127-4th-NNS6-19], the ELISA S/N(SA) came to 4.1.

Turning to GGCWHPVLPIRSVHFCCR (peptide, not shown: large carriers; small tags and cut ends) [C4m#19-5th4w-NN6-64], the ELISA S/N(SA) came to 13.7.

In the case of GGCCHPFLPIYSVHFCAS (peptide, not shown: large carriers; small tags and cut ends) [C4m#19-5th2w-NNS6-34], the ELISA S/N(SA) was determined as 5.

For the molecule GGCSHPFLPIWSVHFCGQ (peptide, not shown: large carriers; small tags and cut ends) [C4m3127-4th-NNS6-3], the ELISA S/N(SA) came to 10.9.

As to GGCRHPFLPIWSSHFCAA (peptide, not shown: large carriers; small tags and cut ends) [C4m#19-5th2w-NNS6-43], the ELISA S/N(SA) turned out to be 4.8.

As for GGCAHPALPIWSCHFCPF (peptide, not shown: large carriers; small tags and cut ends) [C4m3127-4th-NNS6-26], the ELISA S/N(SA) was 7.1.

GGCWHPCLPILSPHFCPR (peptide, not shown: large carriers; small tags and cut ends) [C4m3127-4th-NNS6-30]: the ELISA S/N(SA) turned out to be 7.5.

For GGCLHPFLPIVSIHFCSA (peptide, not shown: large carriers; small tags and cut ends) [C4m#19-5th2w-NNS6-26], the ELISA S/N(SA) stood at 5.8.

Regarding GGCVHPALPIWSFHFCPS (peptide, not shown: large carriers; small tags and cut ends) [C4m#19-5th4w-NN6-46-1], the ELISA S/N(SA) worked out at 14.2.

For GGCWHPFLPIKSVHFCCA (peptide, not shown: large carriers; small tags and cut ends) [C4m#19-5th4w-NN6-75], the ELISA S/N(SA) is 5.6.

On to GGCAHPHLPIRSVHFCSF (peptide, not shown: large carriers; small tags and cut ends) [C4m3127-4th-NNS6-66], for which the ELISA S/N(SA) turned out to be 4.8.

In the case of GGCRHPFLPIWSVHFCWR (peptide, not shown: large carriers; small tags and cut ends) [C4m#19-5th2w-NNS6-45], the ELISA S/N(SA) came out at 11.

For the molecule GGCMHPFLPIKSSHFCRK (peptide, not shown: large carriers; small tags and cut ends) [C4m#19-5th4w-NN6-6], the ELISA S/N(SA) was 16.1.

Take GGCGHPFLPIFSSHFCPL (peptide, not shown: large carriers; small tags and cut ends) [C4m3127-4th-NNS6-85]: the ELISA S/N(SA) was found to be 9.1.

GGCMHPFLPIISQHFCAF (peptide, not shown: large carriers; small tags and cut ends) [C4m#19-5th4w-NN6-89]: the ELISA S/N(SA) stood at 8.3.

Take GGCWHPFLPILSLHFCSR (peptide, not shown: large carriers; small tags and cut ends) [C4m#19-5th4w-NN6-65]: the ELISA S/N(SA) is 12.5.
